Laboratory results published in the DeepSol protein solubility set.

Assay: soluble on expression in E. coli; label from the status in PepcDB or PDB records

Sequence | soluble on expression in E. coli
MDVMNAFDSQAEDSPTSLGRSLRRRPLARKKLSEMVEEELEQMIRRHEFGEGEQLPSERELMAFFNVGRPSVREALAALKRKGLVQINNGERARVSRPSADTIISELSGMAKDFLTHPGGIAHFEQLRLFFESSLVRYAAEHATDEQIALLTKALEINSQSLDDNALFIRSDVEFHRVLAEIPGNPIFMAIHVALLDWLIAARPSVPDRELHEHNNVSYQQHIVIVDAIRQRDPDKADRALQTHLNSVSATWHALGKKSQKMR | not soluble
MKNIAAAGVLERIRRLAPQASVPPYRTVEEWREWQLAEGRKRSEEINRQNHQLRVEKILNRSGIQPLHSKCSFANYQVQNDGQKYALSQAKSIADELMTGCTNFVFSGKTGTGKNHLAAAMGNRLMAKGRSVIIVTVSDVMSVLHDSYDNGKSGEKFLQELCSVDLLVLDEIGVQRETKNEQVVLHQIIDRRTASLCSVGMLTNLNHAAMSTLLGERIMDRMTMNGGRWVTFNWDSWRPNVSNMRVVK | soluble
MGHHHHHHSHPRNSCSLHYIHPYQPNEYLKALVAVGEICQDYDSDKMFPAFGFGARIPPEYTVSHDFAINFNEDNPECAGIQGVVEAYQSCLPKLQLYGPTNIAPIIQKVAKSASEETNTKEASQYFILLILTDGVITDMADTREAIVHASHLPMSVIIVGVGNADFSDMQMLDGDDGILRSPKGEPVLRDIVQFVPFRNFKHASPAALAKSVLAEVPNQVVDYYNGKGIKPKCSSEMYESSRTLAP | not soluble
MGHHHHHHSHMDSKAIAERIKKLQAQQEHVRIGGKGTPRRKKKVIHKTAAADDKKLQSNLKKLSVTNIPGIEEVNMIKDDGTVIHFNNPKVQTSVPANTFSVTGSADNKQITEMLPGILNQLGPESLTHLKKLANNVTKLGPDGKGEDEDVPELVGDFDAASKNETKADEQ | not soluble
MSDGQHRAADAVVVGAGLAGLACALDLCRAGWRVALLEASDGVGGRMRTDRRDGFLLDRGFQVFNTSYPQVKRRMELKSLRLRPFTAGVVAHTSNGPVRLADPTREPRAAGTLLPGRALPARDLAALAALTARDAVLPVAVTRRRRDRPTSAALSRVGLSDAAIAGILRPFLSGVFLEDRLETSARFFHLVWRSMVRGSLCLPAEGIGAVPAQLADGLPDGVLRLGTPVAEITDAGVLLGDGGEVPARVVVVATDPATAAGLLPDLTVPDTRTVTTYYHATDSPPTAEPILMVDSTGAILNTCVLSQVAPTYAPPGTGLVSTSVLGTDPPGRAQAVLRRLAELYGTDTSGWEQVAARTVDGALPAMLPPWPLSRTTRIGPGRYVCGDHRATGSVQGALASGTRAAREVRADREPQRLEHHHHHH | soluble
MRVLLVTGKLAEEMVRKYGKGADVKVYNIDIAAFITPSMLENEDFSGYDLVLVPGLTYSHNWEDFERRKGVKVRLGPIHAYDLQHVLKLIGKVEFSHKIPACRLVESLRAEETLREIDALDEDCAFEIGGVKVGGSSRMKVVAEIASFCDFDDLRAKIDHYTESGADIIDIGVPLEFDKEWLHKTLKIAVDHSKLPLSIDTFSSKAIEIAVKHGVDMVMSISMDNLKALDLIENQAVVVVERDIDGLLNLVERVGEKVERVIADPILDPPLKVAESIGRYAEFRRRDEKTPLLFGAGNVTELSDADSIGINALLAFIAEELKCNLLFTTEASPKTFGSVRELNIASYLAKAAKIRNSPPKDAGVSLLALKEKVRYEERVELDDFVRAEETREFVRDPLGDFIIQVVDGKIVCKHDRMTIVGEKAKEVADTAIKNNLLSRLDHAAYLGRELMKAEIAALLKKSYIQDRELNFGFYQK | not soluble
MSLNTLLMHCRPGFEGEVCAEIAEHAATLEIPGYAKSKPASAHVEFVCQDADGAERLMRRLRFADLIFPRQWARGPGFIELPESQRIEVLLAELASYPVCGSLWLEVLDTNAGKEVSTFCRKFEKPLRAALVKAGRLQEDPALPRLLLTFRSGREVFVGLAEPRNSALWPMGIPRLKFPREAPSRSTLKLEEAWHQFIPRSEWDKRLAPDMLAVDLGAAPGGWTWQLVNREMRVTAVDNGPMAENLMYSGLVDHQKVDGYQYRPRQRVDWMVCDIVEKPARTGALIETWIGEGLCREAVVNLKLPMKQRYAEVRKILQRLRESFDARGLKVAIGCKQLYHDREEVTCHLRRLEREGGSHHHHHH | soluble
MSLIKLYDNYVFISQEGGESGERLYSKKFREKSVVDVSGLRIGEGLVVAAGPCSVENEAMILDIARSVKAAGADMIRGGAFKPRTSPYSFQGLAEKGIEYLVEAREETGLPIVTEIMNPEYYRYFDRVDMLQVGSRNAQNFDLLRFLGKQKKPVLLKNGMGNTAREWLETAEYILSGGNGNVVLCYRGVRGIENSTRFTMNVGSIIYAKSETHLPICADPSHASGRRDFVESMALASVAAGADMLEIEVHNDPDNALSDSEQQIRPVDLKRIIEKARALKDLLSHEIEGHHHHHH | not soluble
VDFHGYARSGIGWTGSGGEQQCFQTTGAQSKYRLGNECETYAELKLGQEVWKEGDKSFYFDTNVAYSVAQQNDWEATDPAFREANVQGKNLIEWLPGSTIWAGKRFYQRHDVHMIDFYYWDISGPGAGLENIDVGFGKLSLAATRSSEAGGSSSFASNNIYDYTNETANDVFDVRLAQMEINPGGTLELGVDYGRANLRDNYRLVDGASKDGWLFTAEHTQSVLKGFNKFVVQYATDSMTSQGKGLSQGSGVAFDNEKFAYNINNNGHMLRILDHGAISMGDNWDMMYVGMYQDINWDNDNGTKWWTVGIRPMYKWTPIMSTVMEIGYDNVESQRTGDKNNQYKITLAQQWQAGDSIWSRPAIRVFATYAKWDEKWGYDYTGNADNNANFGKAVPADFNGGSFGRGDSDEWTFGAQMEIWW | soluble
MGSDKIHHHHHHMTDNQLLMQEALEWKMHFLRKDSMFERFSKRVQTKVNERIPEKIHTVVTESVKKMVEATMAGSNIITYKKDTSALSLSEKNELAKKTIVSYQKVAAAEGVGTGAGGIFLSIADFPLLLSIKMKCLFTLSSIYGFDVKDAQERIFLLLVFQLAFSSDDGRKSLFSVIENWETEKKSIDWRVFQQEYRDYIDVVKLFQLLPGVGAAVGGIANYKLLAQLGETARHVFHLRILKETAGE | not soluble
GMNVDFINPFLDSLLNVLKTMANMELKPGKPNLKKDNLAKGDVSGLIGMVGPQTKGSLSITFEETLILEIMNKMLGEKPESIDEEVTDLVGELTNMVTGGAKNLLSDKGYEFDMATPIVVSGKNHTIAHKSDGQKIIMPFSSIYGTAYIEICFEG | soluble
MKKIATATIATAGIATFAFAQHDADAAENNNSGYNPNDPSSYSYSYTIDQQGQYHYTWQGNWNPSNSDQGHTSNGYSNANSTNNNATQSYTTNNQGTGGKGAVSHSTSNSNVKVSTTSAPSNSNGSNSISNTSGSSNNLYTAGQCTYYVYDKVGGKIGSTWGNANNWASAAAASGYTVNNSPASGSVLQSTAGGYGHVAYVENVNSDGSINVSEMNYGQGAGVVTSRTISASEASGYNYIH | not soluble
QQKRAFEYEIRFYTGNDPLDVWDRYISWTEQNYPQGGKESNMSTLLERAVEALQGEKRYYSDPRFLNLWLKLGRLCNEPLDMYSYLHNQGIGVSLAQFYISWAEEYEARENFRKADAIFQEGIQQKAEPLERLQSQHRQFQARVSRQTLLALEKEEEEEVFESS | soluble
MSEEQKTISISELESMNIKQLYEIAKSLGIPRYTSMRKRDLIFAILKAQTESTGYFFGEGVLEIHPEGFGFLRRIEDNLLPSNDDIYISPSQIRKFNLNTGDIISGVIRKPKEGEKYFAMIKIEAINYRPVEAVNDRVNFDNLTPDYPRERFILETDPKIYSTRLIDLFAPIGKGQRGMIVAPPKAGKTTILKEIANGIAENHPDTIRIILLIDERPEEVTDIRESTNAIVIAAPFDMPPDKQVKVAELTLEMAKRLVEFNYDVVILLDSLTRLARVYNIVVPPSGKLLTGGVDPAALYKPKRFFGAARNTREGGSLTIIATALVETGSKMDEVIFEEFKGTGNMELVLSRQLANKRIFPAINLLLSGTRREELLLDEETLKKVWLLRRMLSAMTEEEGLTLILNKLSETSSNEEFLKLIDKEKARY | soluble
MAHHHHHHMASTDEVVLSENRALRVECEAQEVEIAQLKNYLHMSVTKPDLCFGQQRVTLNKCLNSFPEKAWQKLIDETPEVDSPAIITALEDQLADKNKHLTACLQEISNLRSRSGDGKTKPDSITDGNTAHLLSQITFLHNEVERLEQQVNAVRAAGKEELRVMTIEYNDKLQLREKENRLLTEQLRGRKNHLADGEDMAARTKTLESQLATAGIRKKFFTHREKQFPGKNPKIRGCY | not soluble
MTQGKGTREGGVLADVSALGPGGHAVVVGGGLAGVTTALALADAGVRVTLLEGRPRLGGLAFSFQRGDLTVDNGQHVYLRCCTAYRWFLDRIGGAALAPVQERLDVPVVDLARTEGNRLGRLRRDALPVPLHLGRSLATYPHLSLAERASVGRAALALKGLDLADPSLDTQDFGSWLTAHGQSARAVEALWDLVGVATLNAVAGDASLGLAAMVFKTGLLSDPGAADIGWARVPLGELHDRLARKALDSAGVRTEVRTRVTSVSVNENGGWSVQVPGETLEADAVVLAVPQREAHDLLPDGALDAPENLLRIGTAPILNIHVIYDRKVLGTPFLTALGTPVQWVFDRTEASGLKEGQYLALSQSTAQNDIDEPVAVLRERYLPELERLLPRTRGAEVKDFFVTRERTATFAPAPGVGRLRPGARTKAPGLYLAGAWTATGWPATMESAVRSGVGAAAAALGALGRSRGLLPDFFEEAALEHHHHHH | not soluble
MSFRVSASSSVKPEKDIRIGLLGASGYTGAEIVRLLANHPHFQVTLMTADRKAGQSMESVFPHLRAQKLPTLVSVKDADFSTVDAVFCCLPHGTTQEIIKELPTALKIVDLSADFRLRNIAEYEEWYGQPHKAVELQKEVVYGLTEILREDIKKARLVANPGCYPTTIQLPLVPLLKANLIKHENIIIDAKSGVSGAGRGAKEANLYSEIAEGISSYGVTRHRHVPEIEQGLSDVAQSKVTVSFTPHLMPMIRGMQSTIYVEMAPGVRTEDLHQQLKTSYEDEEFVKVLDEGVVPRTHNVRGSNYCHMSVFPDRIPGRAIIISVIDNLVKGASGQALQNLNIMLGYPETTGLLHQPLFP | soluble
KEVRLSKHFYEDKEIEEIKHKDLAETPFQQQVIDYLYRHIAAQKEKVVEQQLQIKNHEQTITEFVHDIKTPVTAMKLLIDQENDDQRKRALLFEWSRINEMLDKQLYLTRLETHHRDMYFDYISLKRMVIDEIQVTRHISQAKGIGFELDFKDEQKVYTDVKWCRMMIRQVLSNSLKYSDNSTINLSGYNIEGHVVLKIKDYGRGISKRDLPRIFDRGFTSTTDRNDTASSGMGLYLVQSVKEQLGIEVKVDSIVGKGTTFYFIFPQQNEIIERMSKVTRLSF | not soluble
MSPEKQPLPAALVGSHVRAAAGTPADLATDRKFWTGLSRAVQERIADDWERTREAYGAARQQHYFSAEFLMGRALLNNLTNLGLVDEAAAATRELGHELTDILEIENDAALGNGGLGRLAACFLDSAVTQDYPVTGYGLLYRFGLFRQSFNEGFQVEKPDPWREEEYPFTIRRASDQLVVCFDDMKTRAIPYDMPITGYGTHNVGTLRLWKAEPWEEFDYDAFNAQRFTDAIIERERVSDICRVLYPNDTTYEGKKLRVRQQYFFTSASLQAMIQDHLAHHKDLSNFAEFHSVQLNDTHPVLAIPELMRLLMDEHDMGWEESWAIVSKTFAYTNHTVLTEALEQWDEQIFQQLFWRVWEIIAEIDRRFRLERAADGLDEETINRMAPIQHGTVHMAWIACYAAYSINGVAALHTEIIKAETLADWYALWPEKFNNKTNGVTPRRWLRMINPGLSDLLTRLSGSDDWVTDLDELKKLRSYADDKSVLEELRAIKAANKQDFAEWILERQGIEIDPESIFDVQIKRLHEYKRQLMNALYVLDLYFRIKEDGLTDIPARTVIFGAKAAPGYVRAKAIIKLINSIADLVNNDPEVSPLLKVVFVENYNVSPAEHILPASDVSEQISTAGKEASGTSNMKFMMNGALTLGTMDGANVEIVDSVGEENAYIFGARVEELPALRESYKPYELYETVPGLKRALDALDNGTLNDNNSGLFYDLKHSLIHGYGKDASDTYYVLGDFADYRETRDRMAADYASDPLGWARMAWINICESGRFSSDRTIRDYATEIWKLEPTPAVKK | soluble
